This assay concerns the target InlB (recombinant His-tagged InlB321 peptide, aa 36-321 of internalin B) (Listeria monocytogenes). Put plainly: FACS competition; InlB pre-incubated with soluble MET peptide at 1:1 molar ratio.

Turning to “MET peptide (soluble peptide derived from the extracellular, ligand-binding domain of MET; YCP2247 SPEED BioSystems) (from UniProt P08581 25-932) (receptor)”, the percent reduction of InlB binding to H1993 cells was determined as 50%.

(Values after US20160331840A1.)
